Test results from patent US20040071701A1, “Use of NGF-antagonists for the prevention or treatment of chronic visceral pain” (priority 2002, published 2004).

B1: NGF: 2.5 S-NGF obtained from mouse submaxillary gland (SIGMA reference N-6009) (protein, UniProt P01139 122-241, looked up)
Beta-nerve growth factor: SSTHPVFHMGEFSVCDSVSVWVGDKTTATDIKGKEVTVLAEVNINNSVFRQYFFETKCRASNPVESGCRGIDSKHWNSYCTTTHTFVKALTTDEKQAAWRFIRIDTACVCVLSRKATRRG
modifications: Beta-nerve growth factor

Tests used:
TNBS-treated rats = experiment: Colonic distension-induced pain threshold in TNBS-treated rats (chronic colonic allodynia); format: in vivo, rat; settings: 30 mg/kg s.c. in 20% cyclodextrin 30 minutes before distension, mean +/- SEM (n=7-8), vehicle 17.8+/-1.8, p<0.01
Method: (§1) Adult male rats of the Wistar strain, 320 to 350 g in weight (obtained from the Janvier farm, Le Genest-Saint-Isle, France) were used for all the experiments. They were kept under controlled conditions of temperature (20+/−1° C.), humidity (50+/−5%) and lighting (light from 7 to 19 hours). The animals were starved of food for 18 hours before the beginning of the experiments, the supply of water being maintained.
(§2) Distension studies were carried out on waking rats in isobaric mode, using pressure increments of 5 mm of mercury every thirty seconds. A latex balloon, placed in the distal part of the colon is linked to an electronic barostat. The pain threshold is defined as the pressure inducing the first abdominal contraction. Each rat is subjected to four distension trials so as to increase the reproducibility of the test. The mean of the pressure values is calculated on the thresholds observed for the four successive distensions.
A laparotomy is carried out on rats anaesthetized with acepromazine (12 mg/kg i.p.) and ketamine (80 mg/kg i.p.) so as to inject into the proximal colon the trinitrobenzenesulphonic acid (TNBS) (50 mg/kg) in ethanol at 30%. The rats are then placed in individual cages. The colonic distension experiment is performed seven days after the administration of TNBS. […]

naïve rats = experiment: Colonic distension-induced pain threshold in naïve rats (isobaric balloon distension); format: in vivo, rat
Method: as §1, §2
2.5 S-NGF obtained from mouse submaxillary gland (marketed by the company SIGMA under the reference N-6009) is dissolved in 0.1% bovine serum albumin (BSA). Into the naïve rats, 0.1 ng to 100 ng of NGF are injected by the i.p. route, 30 minutes before the distension.
Naïve rats were subjected to distension experiments with a balloon placed in the distal part of the colon. […]

Row | Molecule | colonic pain threshold (TNBS-treated rats) | colonic pain threshold (naïve rats; naïve Wistar rats, 1 ng of NGF i.p. 30 minutes before distension, control (BSA) about 44 mmHg) | effect on threshold of pain in the colon (naïve rats; naïve rats, increasing doses of NGF (0.1 ng to 100 ng) i.p.)
1 | O=C1c2cccc3cc([N+](=O)[O-])cc(c23)C(=O)N1NCCO [ALE-0540] | 37.6+/−4.5 mmHg |  | 
2 | B1 |  | less than 20 mmHg | significant reduction
